# According to PMC11452484:
# B1: gRNA-target ssDNA (DNA:RNA)
# RNA: AUUCCUGUUAGAGCUGUUAAC
# DNA: AAGTTAACAGCTCTAACAGGAATAA
# modifications: 5'-phosphate on guide RNA
# Columns and labels:
# [1] = target: short pAgo (SPARSA Ago subunit);Sir2-APAZ N142A (Geobacter sulfurreducens;Geobacter …, UniProt Q74DF5;Q74DF6 1-473;1-587, |N142A); test: cryo-EM structure
# [2] = target: short pAgo (SPARSA Ago subunit);Sir2-APAZ (Geobacter sulfurreducens;Geobacter …, UniProt Q74DF5;Q74DF6 1-473;1-587, |); test: SEC
binder,measurement,setting,value
B1,binding result,[1],binds
same,binding result,[2],binds
